Where a chain is given by its changes, count along the chain named.
B1: TSHB-15 (antibody, V domains shown)
VH: EVQLVQSGAEVKKPGQSLKISCKASGYSLTDNWIGWVRQKPGKGLEWMGIIYPGDSDTRYSPSFQGQVTISADKSINTAYLQWSSLKASDTAIYYCVGLDWNYNPLRYWGPGTLVTVSS
VL: QSVLTQPPSVSAAPGQKVTISCSGSSSDIGSNYVSWYQQLPGTAPKLLIYDNNKRPSGIPDRFSGSKSGTSATLGITGLQTGDEADYYCGTWDSRFGIAVFGGGTQLTVL
B2: TSHB-24 (antibody, V domains shown)
VH: B1 VH with Q16E, N77S, P111Q
VL: B1 VL with A12G, K17R, I59V, T73S, G75A, T81A, G82E, F96L, Q106K
B3: TSHB-20 (antibody, V domains shown)
VH: B1 VH
VL: B1 VL with D28N, F96L
B4: TSHB-18 (antibody, V domains shown)
VH: B1 VH
VL: B1 VL with S27T, F96L
B5: TSHB-19 (antibody, V domains shown)
VH: B1 VH
VL: B1 VL with Y33W, F96L
B6: TSHB-16 (antibody, V domains shown)
VH: B1 VH
VL: B1 VL with S31A, F96L
B7: TSHB-23 (antibody, V domains shown)
VH: B1 VH with Q16E, N77S, P111Q
VL: B1 VL with F96L
B8: TSHB-21 (antibody, V domains shown)
VH: B1 VH
VL: B1 VL with G90A, F96L
B9: TSHB-17 (antibody, V domains shown)
VH: B1 VH
VL: B1 VL with N32L, F96L

Tests used:
[1] = target: T1, soluble TSHR protein (ELISA coat) (human, UniProt P16473 22-260, limits assumed); experiment: ELISA, plate coated with soluble TSHR, antibody at 33.3 nM, anti-human IgG Fc-HRP (blank 0.051)
[2] = target: T1, soluble TSHR protein (ELISA coat); experiment: ELISA, plate coated with soluble TSHR, antibody at 300 nM, anti-human IgG Fc-HRP (blank 0.055)
[3] = target: T1, soluble TSHR protein (ELISA coat); experiment: ELISA, plate coated with soluble TSHR, antibody at 100 nM, anti-human IgG Fc-HRP (blank 0.052)
[4] = target: T2, Soluble TSHR (22-260) protein (human, UniProt P16473 22-260); experiment: SPR (Biacore T200, 25 C), antibody captured on anti-human Fc, soluble TSHR (22-260) as analyte, 1:1 fit;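 note: antibodies captured at 0.1 ug/mL on a CM5 sensor chip bearing anti-human Fc, with HBS-EP+ running buffer at pH 7.4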
T2 construct: range 22-260
Description: Measurements were taken on a Biacore T200 at 25 C using a CM5 chip coated with anti-human Fc. Test antibodies were captured at 0.1 ug/mL in HBS-EP+ (10 mM HEPES pH7.4, 150 mM NaCl, 3 mM EDTA, 0.05% Tween 20) assay buffer. […] A 1:1 binding kinetics fit was used to calculate kinetic parameters.

[5] = target: T1, soluble TSHR protein (ELISA coat); experiment: ELISA, plate coated with soluble TSHR, antibody at 300 nM, anti-human IgG Fc-HRP;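 note: TSHR coated at 2 µg/ml, bound antibody revealed by goat anti-human IgG Fc HRP, color developed with TMB and stopped with H2SO4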
Description: (§1) Select TSHR antibody variants were tested for their ability to bind TSHR in an ELISA. Briefly, soluble TSHR protein was coated onto a plate at 2 μg/ml in phosphate buffered saline (PBS). The plate was washed with PBS and blocked with 4% skim milk in PBS.
(§2) Following wash steps with 1×PBS-Tween 0.05%, bound human IgG was detected with peroxidase conjugated goat anti-human IgG (Fc specific)-HRP at 1:5000 dilution and the ELISA was developed with TMB reagent followed by H2SO4.

[6] = target: T1, soluble TSHR protein (ELISA coat); experiment: ELISA, plate coated with soluble TSHR, antibody at 33.3 nM, anti-human IgG Fc-HRP;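 note: binding of antibody variants to plate-bound soluble TSHR (coated at 2 µg/ml), with bound human IgG detected by HRP conjugate and colour developed using TMB substrate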
Description: as §1, §2

[7] = target: T1, soluble TSHR protein (ELISA coat); experiment: ELISA, plate coated with soluble TSHR, antibody at 100 nM, anti-human IgG Fc-HRP;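 note: binding of antibody variants to soluble TSHR coated at 2 µg/ml, with colour developed using TMB substrate and stopped with H2SO4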
Description: as §1, §2

Molecule	ELISA (OD 450) at 33.3 nM [1]	ELISA (OD 450) at 300 nM [2]	ELISA (OD 450) at 100 nM [3]	Kd [4]	koff [4]	kon [4]	ELISA (OD 450) at 300 nM [5]	ELISA (OD 450) at 33.3 nM [6]	ELISA (OD 450) at 100 nM [7]
human IgG1 isotype control antibody	0.063 OD 450	0.055 OD 450	0.057 OD 450						
B1				3.08 nM	0.000372 s⁻¹	121000 M⁻¹ s⁻¹	0.569 OD 450	0.443 OD 450	0.517 OD 450
B2				2.7 nM	0.000348 s⁻¹	129000 M⁻¹ s⁻¹	0.54 OD 450	0.425 OD 450	0.49 OD 450
B3				2.77 nM	0.000301 s⁻¹	109000 M⁻¹ s⁻¹	0.54 OD 450	0.411 OD 450	0.465 OD 450
B4				2.94 nM	0.000368 s⁻¹	125000 M⁻¹ s⁻¹	0.55 OD 450	0.42 OD 450	0.495 OD 450
B5				3.12 nM	0.000369 s⁻¹	118000 M⁻¹ s⁻¹	0.547 OD 450	0.405 OD 450	0.47 OD 450
B6				2.7 nM	0.000385 s⁻¹	142000 M⁻¹ s⁻¹	0.566 OD 450	0.443 OD 450	0.487 OD 450
B7				2.45 nM	0.000344 s⁻¹	141000 M⁻¹ s⁻¹	0.538 OD 450	0.512 OD 450	0.466 OD 450
B8				3.1 nM	0.000357 s⁻¹	115000 M⁻¹ s⁻¹	0.552 OD 450	0.395 OD 450	0.473 OD 450
B9				8.25 nM	0.000407 s⁻¹	49400 M⁻¹ s⁻¹	0.475 OD 450	0.357 OD 450	0.402 OD 450
